# Data as given in patent publication US20070116673.
# T1: synthetic integrin α1 cytoplasmic tail peptide (RPLKKKMEKRPLKKKMEK)
# T1 chain: RPLKKKMEKRPLKKKMEK
# T2: α2 peptide KLGFFKRKYEKMTKNPDEIDETTELSS (synthetic integrin α2 cytoplasmic tail peptide)
# T2 chain: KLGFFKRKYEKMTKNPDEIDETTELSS
# B1: endogenous TCPTP (T cell protein tyrosine phosphatase) of HeLa cells (protein)
# chain: MPTTIEREFEELDTQRRWQPLYLEIRNESHDYPHRVAKFPENRNRNRYRDVSPYDHSRVKLQNAENDYINASLVDIEEAQRSYILTQGPLPNTCCHFWLMVWQQKTKAVVMLNRIVEKESVKCAQYWPTDDQEMLFKETGFSVKLLSEDVKSYYTVHLLQLENINSGETRTISHFHYTTWPDFGVPESPASFLNFLFKVRESGSLNPDHGPAVIHCSAGIGRSGTFSLVDTCLVLMEKGDDINIKQVLLNMRKYRMGLIQTPDQLRFSYMAIIEGAKCIKGDSSIQKRWKELSKEDLSPAFDHSPNKIMTEKYNGNRIGLEEEKLTGDRCTGLSSKMQDTMEENSESALRKRIREDRKATTAQKVQQMKQRLNENERKRKRWLYWQPILTKMGFMSVILVGAFVGWTLFFQQNAL
# B2: SHP-2 (protein tyrosine phosphatase immunoprecipitated from HeLa lysates) (protein)
# chain: TSRRWFHPNITGVEAENLLLTRGVDGSFLARPSKSNPGDFTLSVRRNGAVTHIKIQNTGDYYDLYGGEKFATLAELVQYYMEHHGQLKEKNGDVIELKYPLNCADPTSERWFHGHLSGKEAEKLLTEKGKHGSFLVRESQSHPGDFVLSVRTGDDKGESNDGKSKVTHVMIRCQELKYDVGGGERFDSLTDLVEHYKKNPMVETLGTVLQLKQPLNTTRINAAEIESRVRELSKLAETTDKVKQGFWEEFETLQQQECKLLYSRKEGQRQENKNKNRYKNILPFDHTRVVLHDGDPNEPVSDYINANIIMPEFETKCNNSKPKKSYIATQGCLQNTVNDFWRMVFQENSRVIVMTTKEVERGKSKCVKYWPDEYALKEYGVMRVRNVKESAAHDYTLRELKLSKVGQGNTERTVWQYHFRTWPDHGVPSDPGGVLDFLEEVHHKQESIMDAGPVVVHCSAGIGRTGTFIVIDILIDIIREKGVDCDIDVPKTIQMVRSQRSGMVQTEAQYRFIYMAVQHYIETLQRRIEEEQKSKRKGHEYTNIKYSLADQTSGDQSPLPPCTPTPPCAEMREDSARVYENVGLMQQQKSFR
# Experiments:
# [1] = target: T1, synthetic integrin α1 cytoplasmic tail …
# [2] = target: T2, α2 peptide KLGFFKRKYEKMTKNPDEIDETTELSS …
Protein,catalytic activity of immunoprecipitated TCPTP (diFMUP substrate) [1],catalytic activity of immunoprecipitated TCPTP (diFMUP substrate) [2],phosphatase activity of immunoprecipitated SHP-2 (diFMUP substrate) [1],phosphatase activity of immunoprecipitated SHP-2 (diFMUP substrate) [2]
B1,increased 2.95±0.48 fold,the corresponding α2 tail peptide had no effect,–,–
B2,–,–,"another protein tyrosine phosphatase, SHP-2, was not activated by either peptide","another protein tyrosine phosphatase, SHP-2, was not activated by either peptide"
